# From publication PMC10164138 (Structure (London, England : 1993), 2023)
# B1: CfaB, major pilin subunit of CFA/I pili (natural protein, enterotoxigenic Escherichia coli (ETEC), UniProt P0CK93 24-170, looked up)
# chain: VEKNITVTASVDPAIDLLQADGNALPSAVKLAYSPASKTFESYRVMTQVHTNDATKKVIVKLADTPQLTDVLNSTVQMPISVSWGGQVLSTTAKEFEAAALGYSASGVNGVSSSQELVISAAPKTAGTAPTAGNYSGVVSLVMTLGS
# Molecular target: the molecule itself
# Assay: cryo-EM structure
protein,measurement,value
B1,binding result,binds
